Residue numbers refer to the chain shown, from its start. Names and notes keep the numbering of the source.
B1: LC-V029W (antibody, V domains shown)
VH: EVQLVQSGAEVKKPGATVKISCKVSGYSFTGHTMNWIRQPPGKGLEWIGLIKPSNGGTSYNQKFKGRVTISADKSISTAYLQWSSLKASDTAMYYCAHGHYESYFAMDYWGQGTLVTVSS
VL: DIQMTQSPSSLSASVGDRVTITCKASQDWSSAVAWYQQKPGQAPRLLIYWASTRHTGVPSRFSGSGSGTEFTLTISSLQPDDFATYYCQEHFSTPLTFGQGTKVEIK
B2: LC-F092S (antibody, V domains shown)
VH: B1 VH
VL: B1 VL with W29V, F92S
B3: LC-A051P (antibody, V domains shown)
VH: B1 VH
VL: B1 VL with W29V, A51P
B4: LC-P095C (antibody, V domains shown)
VH: B1 VH
VL: B1 VL with W29V, P95C
B5: LC-P095A (antibody, V domains shown)
VH: B1 VH
VL: B1 VL with W29V, P95A
B6: LC-A051I (antibody, V domains shown)
VH: B1 VH
VL: B1 VL with W29V, A51I
B7: LC-F092N (antibody, V domains shown)
VH: B1 VH
VL: B1 VL with W29V, F92N
B8: LC-H091C (antibody, V domains shown)
VH: B1 VH
VL: B1 VL with W29V, H91C
B9: LC-A051N (antibody, V domains shown)
VH: B1 VH
VL: B1 VL with W29V, A51N
B10: LC-F092D (antibody, V domains shown)
VH: B1 VH
VL: B1 VL with W29V, F92D
B11: LC-F092G (antibody, V domains shown)
VH: B1 VH
VL: B1 VL with W29V, F92G
B12: LC-A032L (antibody, V domains shown)
VH: B1 VH
VL: B1 VL with W29V, A32L
B13: LC-H091Y (antibody, V domains shown)
VH: B1 VH
VL: B1 VL with W29V, H91Y
B14: LC-P095E (antibody, V domains shown)
VH: B1 VH
VL: B1 VL with W29V, P95E
B15: LC-P095D (antibody, V domains shown)
VH: B1 VH
VL: B1 VL with W29V, P95D
B16: LC-H091I (antibody, V domains shown)
VH: B1 VH
VL: B1 VL with W29V, H91I
B17: LC-P095H (antibody, V domains shown)
VH: B1 VH
VL: B1 VL with W29V, P95H
B18: LC-F092C (antibody, V domains shown)
VH: B1 VH
VL: B1 VL with W29V, F92C
B19: LC-A034Q (antibody, V domains shown)
VH: B1 VH
VL: B1 VL with W29V, A34Q
B20: LC-F092E (antibody, V domains shown)
VH: B1 VH
VL: B1 VL with W29V, F92E
B21: LC-A034N (antibody, V domains shown)
VH: B1 VH
VL: B1 VL with W29V, A34N
B22: LC-H091F (antibody, V domains shown)
VH: B1 VH
VL: B1 VL with W29V, H91F
B23: LC-A034D (antibody, V domains shown)
VH: B1 VH
VL: B1 VL with W29V, A34D
B24: LC-T094C (antibody, V domains shown)
VH: B1 VH
VL: B1 VL with W29V, T94C
B25: LC-W050F (antibody, V domains shown)
VH: B1 VH
VL: B1 VL with W29V, W50F
B26: LC-A032M (antibody, V domains shown)
VH: B1 VH
VL: B1 VL with W29V, A32M

Columns and labels:
Axl protein [1] = biological target: T1, Axl protein (human, UniProt P30530 26-451); assay: ELISA, 1:3 dilution, pH 6.0 over pH 7.4
T1 construct: extracellular domain; also called human Axl; hAxl
T1 sequence (looked up): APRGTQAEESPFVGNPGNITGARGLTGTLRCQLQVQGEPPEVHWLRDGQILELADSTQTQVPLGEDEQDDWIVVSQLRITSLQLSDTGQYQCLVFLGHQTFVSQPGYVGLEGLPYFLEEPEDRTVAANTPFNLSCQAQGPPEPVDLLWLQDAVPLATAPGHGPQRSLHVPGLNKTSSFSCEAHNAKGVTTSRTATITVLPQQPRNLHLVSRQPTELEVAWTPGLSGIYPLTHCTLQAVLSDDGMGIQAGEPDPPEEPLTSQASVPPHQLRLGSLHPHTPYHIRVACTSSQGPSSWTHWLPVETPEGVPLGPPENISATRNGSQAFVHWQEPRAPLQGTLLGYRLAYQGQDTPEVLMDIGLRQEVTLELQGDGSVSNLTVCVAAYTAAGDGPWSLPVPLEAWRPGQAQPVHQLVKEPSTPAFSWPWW

Axl protein [2] = biological target: T1, Axl protein; assay: ELISA, 1:9 dilution, pH 6.0 over pH 7.4

| Binder | Affinity ELISA CPE mutant ratio (1:3, pH 6.0/7.4) (Axl protein [1]) | Affinity ELISA CPE mutant ratio (1:9, pH 6.0/7.4) (Axl protein [2]) |
| --- | --- | --- |
| B1 | 2.31 ratio | 2.35 ratio |
| B2 | 3.18 ratio | 2.94 ratio |
| B3 | 1.92 ratio | 1.57 ratio |
| B4 | 2.35 ratio | 2.63 ratio |
| B5 | 2.52 ratio | 2.99 ratio |
| B6 | 2.24 ratio | 2.14 ratio |
| B7 | 1.93 ratio | 2 ratio |
| B8 | 4 ratio | 3.02 ratio |
| B9 | 1.41 ratio | 2.2 ratio |
| B10 | 2.97 ratio | 2.94 ratio |
| B11 | 3.69 ratio | 4.76 ratio |
| B12 | 1.98 ratio | 2.27 ratio |
| B13 | 3.93 ratio | 5.13 ratio |
| B14 | 7.12 ratio | 7.51 ratio |
| B15 | 3.95 ratio | 2.89 ratio |
| B16 | 1.55 ratio | 2.15 ratio |
| B17 | 2.5 ratio | 2.75 ratio |
| B18 | 3.86 ratio | 4.58 ratio |
| B19 | 2 ratio | 1.41 ratio |
| B20 | 1.76 ratio | 2 ratio |
| B21 | 2.63 ratio | 2.4 ratio |
| B22 | 1.6 ratio | 2.12 ratio |
| B23 | 3 ratio | 2.6 ratio |
| B24 | 1.42 ratio | 1.77 ratio |
| B25 | 2.25 ratio | 3.5 ratio |
| B26 | 4.76 ratio | 2.92 ratio |

— patent US20190177417A1 (BIOATLA, published 2019)
